Experimental data as given in publication PMC7241785, “Filaggrin and filaggrin 2 processing are linked together through skin aspartic acid protease activation” (PLoS ONE, 2020).

Target: T1, GST-Flag-SASPase 28 kDa recombinant protein (human, UniProt Q53RT3 85-343)
T1 construct: Skin aspartic acid protease, amino acids 1-259 of SASPase 28, corresponding to amino acids 85-343 of SASPase 37 (Q53RT3); Expression vector pEB9; also called GST-SASPase 28; 28 kDa SASPase; source: E. coli BL21, purified (glutathione resin); not shown: GST, N-terminal, kept; Flag, N-terminal, kept
T1 sequence (looked up): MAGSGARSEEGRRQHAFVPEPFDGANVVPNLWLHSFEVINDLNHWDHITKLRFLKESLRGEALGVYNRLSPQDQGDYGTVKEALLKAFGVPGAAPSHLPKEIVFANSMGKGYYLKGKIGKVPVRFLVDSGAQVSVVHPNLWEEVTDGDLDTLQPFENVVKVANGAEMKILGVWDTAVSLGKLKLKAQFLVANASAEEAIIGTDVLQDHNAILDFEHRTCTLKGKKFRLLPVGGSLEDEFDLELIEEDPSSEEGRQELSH
Experiment: SPR; Biacore T200, 25°C, HBS-EP+; goat anti-GST on CM5 captures GST-Flag-SASPase 28 (1 μM, flow cell 2) and GST (flow cell 1); analyte MBP-HA-FLG2S100 at 0-6 μM, control MBP-HA at 3 and 6 μM; 1:1 Langmuir fit
Conditions: both partners purified

Kd: 488 nM | koff: 0.00226 s⁻¹ | kon: 4630 M⁻¹ s⁻¹
B1: MBP-HA FLG2 S100 (aa 2-95) (domain or fragment, human, UniProt Q5D862 2-95, looked up)
chain: TDLLRSVVTVIDVFYKYTKQDGECGTLSKGELKELLEKELHPVLKNPDDPDTVDVIMHMLDRDHDRRLDFTEFLLMIFKLTMACNKVLSKEYCK
notes: Filaggrin 2, amino acids 2-95 containing the S100 domain; Expression vector pEB7; also called MBP-HA FLG2 (aa 2-95); source: E. coli BL21, purified (amylose resin); not shown: MBP, N-terminal, kept; HA, N-terminal, kept
